Results as given in article PMC5426754, “Ezrin interacts with S100A4 via both its N- and C-terminal domains” (PLoS ONE, 2017).

B1: S100A4 (metastasin), wild type (natural protein)
chain: not shown

Legend:
Conditions in all cases: both partners purified
[1] = target: T1, Ezrin N-ERMAD (N-terminal ERM domain, FERM domain, Met1-Lys296) (human, UniProt P15311 1-296); assay: stopped-flow tryptophan fluorescence kinetics; 1 μM (post-mixing) N-ERMAD or F2 lobe mixed with S100A4 at different concentrations; 20 mM HEPES pH 7.5, 150 mM NaCl, 0.5 mM TCEP, 1 mM CaCl2; 25°C; Kd from amplitudes (quadratic), K1, k2, k-2 from hyperbola of kobs (induced fit)
[2] = target: T2, Ezrin F2 lobe of the N-ERMAD (Glu87-Glu199) (human, UniProt P15311 87-199); assay: as above
[3] = target: T1, Ezrin N-ERMAD (N-terminal ERM domain, …); assay: other fluorescence titration; steady-state tryptophan fluorescence; 2 μM ezrin construct titrated with S100 protein; 20 mM HEPES pH 7.5, 150 mM NaCl, 0.5 mM TCEP, 1 mM CaCl2; 25°C; quadratic binding equation
[4] = target: T3, Full-length human ezrin, phosphomimicking mutant T567D (human, UniProt P15311 1-586, Thr567Asp); assay: as above
Full-length human ezrin [5] = target: T4, Full-length human ezrin (human, UniProt P15311 1-586); assay: as above
[6] = target: T2, Ezrin F2 lobe of the N-ERMAD …; assay: as above
[7] = target: T2, Ezrin F2 lobe of the N-ERMAD …; assay: as above; remark: listed apart in the source
[8] = target: T1, Ezrin N-ERMAD (N-terminal ERM domain, …); assay: fluorescence polarisation; competitive FP; 50 nM Fl-NMIIA complexed with 4 μM S100A4 dimer titrated with ezrin constructs; competition binding equation; triplicates
[9] = target: T3, Full-length human ezrin, …; assay: as above
Full-length human ezrin [10] = target: T4, Full-length human ezrin; assay: as above
[11] = target: T2, Ezrin F2 lobe of the N-ERMAD …; assay: as above
[12] = target: T1, Ezrin N-ERMAD (N-terminal ERM domain, …); assay: other fluorescence titration; steady-state tryptophan fluorescence; 2 μM ezrin construct titrated with S100 protein; 20 mM HEPES pH 7.5, 150 mM NaCl, 0.5 mM TCEP, 1 mM CaCl2; 25°C; quadratic binding equation; remark: listed apart in the source
[13] = target: B1; assay: fluorescence polarisation; direct FP; 50 nM fluorescent tracer (Fl-C-ERMAD variants or Fl-NMIIA) titrated with S100 proteins or N-ERMAD; 20 mM HEPES pH 7.5, 150 mM NaCl, 0.1 mM TCEP, 1 mM CaCl2, 0.05% Tween-20; triplicates; quadratic binding equation
[14] = target: T1, Ezrin N-ERMAD (N-terminal ERM domain, …); assay: as above
[15] = target: T1, Ezrin N-ERMAD (N-terminal ERM domain, …); assay: circular dichroism; far-UV CD difference spectra of complexes; 10 mM Tris pH 7.5, 150 mM NaCl, 0.1 mM TCEP, 1 mM CaCl2; 15 μM N-ERMAD + 50 μM S100A4 dimer, 25 μM F2 lobe + 25 μM S100A4 dimer, 25 μM C-ERMAD + 100 μM S100A4 dimer or 30 μM N-ERMAD; BeStSel deconvolution
[16] = target: B1; assay: fluorescence polarisation; competitive FP; 50 nM Fl-NMIIA complexed with 4 μM S100A4 dimer titrated with ezrin constructs; competition binding equation; triplicates

How did the Kd [1] turn out when B1 was run?
The Kd was 3900 nM.

And the Kd [2]?
Its Kd is 170 nM.

And the Kd [3]?
Its Kd is 2200 nM.

What about the Kd [4] of the same binder?
The Kd was 158000 nM.

What about the Kd (Full-length human ezrin [5]) of the same binder?
Its Kd is 175000 nM.

What about the Kd [6] of the same binder?
Its Kd is < 100 nM.

What about the “stoichiometry N” value [7] of the same binder?
Its value is 1 S100A4 dimer per F2 lobe.

And the Kd [8]?
The Kd was 1100 nM.

And the Kd [9]?
Its Kd is 72200 nM.

What about the Kd (Full-length human ezrin [10]) of the same binder?
Its Kd is 92100 nM.

What about the Kd [11] of the same binder?
Its Kd is 120 nM.

B2: S100P (natural protein, UniProt P25815 1-95, looked up)
chain: MTELETAMGMIIDVFSRYSGSEGSTQTLTKGELKVLMEKELPGFLQSGKDKDAVDKLLKDLDANGDAQVDFSEFIVFVAAITSACHKYFEKAGLK
With B2 as the binder, how does the Kd [12] read?
The Kd was 1700 ± 300 nM.

B3: Fl-C-ERMAD^T567D (fluorescently labeled phosphomimetic C-ERMAD mutant) (domain or fragment, human)
chain: CKRITEAEKNERVQRQLLTLSSELSQARDENKRTHNDIIHNENMRQGRDKYKDLRQIRQGNTKQRIDEFEAL
modifications: fluorescent label on the N-terminal cysteine (Alexa Fluor 568 C5 maleimide by the methods for the C-ERMAD fragments)
notes: cysteine cloned before Lys516, carries the fluorescent label (as for the C-ERMAD); human ezrin C-ERMAD with Thr567Asp; limits are those printed for the parent C-ERMAD (Lys516-Leu586); source: E. coli Rosetta(DE3), purified, fluorescently labeled; not shown: GST, N-terminal, cleaved
What does the source list for B3?
Kd [13]: 2700 nM; binding result [14]: binds

B4: Fl-C-ERMAD (fluorescently labeled ezrin C-ERMAD, Cys-Lys516-Leu586) (domain or fragment, human)
chain: CKRITEAEKNERVQRQLLTLSSELSQARDENKRTHNDIIHNENMRQGRDKYKTLRQIRQGNTKQRIDEFEAL
modifications: Alexa Fluor 568 C5 maleimide on the N-terminal cysteine (the same paragraph also calls the peptides fluorescein-conjugated)
notes: cysteine cloned before Lys516, carries the fluorescent label; human ezrin C-ERMAD, Lys516-Leu586; also called fluorescently-labeled C-ERMAD; not shown: GST, N-terminal, cleaved
Which Kd [13] does the source give for B4 here?
The Kd was 3400 nM.

And the Kd [14]?
The Kd was 8.6 ± 0.7 nM.

B5: Ezrin C-ERMAD (Cys-Lys516-Leu586), unlabeled (domain or fragment, human)
chain: CKRITEAEKNERVQRQLLTLSSELSQARDENKRTHNDIIHNENMRQGRDKYKTLRQIRQGNTKQRIDEFEAL
notes: cysteine cloned before Lys516 for fluorescent labeling; human ezrin C-ERMAD, Lys516-Leu586; also called unlabeled C-ERMAD; not shown: GST, N-terminal, cleaved
Does B5 bind [15]?
Result: binds

What about the Kd [16] of the same binder?
Its Kd is 5300 nM.
